# Reference: US20230183322A1 (PEKING UNIVERSITY, published 2023)
# Where a chain is given by its changes, count along the chain named.
# B1: ABU-174 (antibody, V domains shown)
# VH: QVQLQQWGAGLLKPSETLSLTCAVYGGSFSDYYWNWIRRPPGKGLEWIGEITHSGSTNYNPSLKSRVTISVDTSKNQFSLKLSSVTAADTAVYYCARGQGYGRVLLWFGEWGQGTLVTVSS
# VL: EIVLTQSPATLSLSPGERATLSCRASQSVSTYLAWYQQKPGQAPRLLIYDASNRATGIPARFSGSGSGTDFTLTISSLEPEDFAVYYCQQRSNWITFGQGTRLEIK
# B2: ABU-190 (antibody, V domains shown)
# VH: EVQLVESGGGLIQPGGSLRLSCAASGITVSSNYMSWVRQAPGKGLEWVSVIYSGGSTDYADSVKGRFTISRDKSKNTLYLQMNSLRAEDTAVYYCARDLGEAGGMDVWGQGTTVTVSS
# VL: AIQLTQSPSSLSASVGDRVTITCRASQGISSYLAWYQQKPGKAPKLLIYAASTLQSGVPSRFSGSGSGTDFTLTISSLQPEDFATYYCQQLNSYPPAFGGGTKVEIK
# B3: ABU-208 (antibody, V domains shown)
# VH: QVQLVESGGGVVQPGRSLRLSCVASGFTFSNYDMHWVRQAPGKGLEWVTVISSDGNNRRYADSVKGRFTISRDNSKNMLYLQMNSLKAEDTAVYYCARDEVIAVATGEGMDVWGQGTTVTVSP
# VL: EIVMTQSPAILSVSPGERATLSCRASQSVTRNLAWYQQKPGQAPRLLIYGASTRATNIPARFSGSGFGTEFTLIISSLQSEDFAVYYCQQYSNWPLYTFGQGTKLEIK
# B4: ABU-257 (antibody, V domains shown)
# VH: EVQLVESGGGLIQPGGSLRLSCAASGFTVSSNYMSWVRQAPGKGLEWVSVIYSGGSTYYADSVKGRFTISRDNSKNTLYLQMNSLRAEDTAVYYCARVTRAGAAGDGGAFDIWGQGTMVTVSS
# VL: QSALTQPASVSGSPGQSITISCTGTSSDVGSYNLVSWYQQHPGKAPKLMIYEVSKRPSGVSNRFSGSKSGNTASLTISGLQAEDEADYYCCSYAGSSLWVFGGGTKLTVL
# B5: ABU-290 (antibody, V domains shown)
# VH: QVQLVQSGAEVKKPGASVKVSCKASGFTFGRHGITWVRQAPGQGLEWMGWISTYSGNTNYAQNLQGRVTMTTDTSTNTAYMELRSLFFDDTAVYYCAKAVSGWPIYFDAWGQGTLVTVSS
# VL: EIVMTQSPATLSVSPGERVTLSCRASQSINRNLAWYQQKPGQAPRLLVYDASTRAPGIPTRVSGSGSGTDFTLTISSLQSEDFAVYYCQQYNNWPPITFGQGTRLEIQ
# B6: ABU-291 (antibody, V domains shown)
# VH: B5 VH with V2I, K19R, H32Y, A40V, V93M
# VL: B5 VL with I29V, S63R
# B7: ABU-296 (antibody, V domains shown)
# VH: EVQLLESGGGVVQPGGSLRLSCAASGFTFTTYAMNWVRQAPGRGLEWVSAISDSGGSAYYADSVKGRFTISRDNSKNTLYLQMNSLRAEDTAVYYCAKTRGRGLYDYVWGSKDYWGQGTLVTVSS
# VL: not shown
# B8: ABU-297 (antibody, V domains shown)
# VH: B7 VH with T28A, S54G
# VL: not shown
# B9: ABU-308 (antibody, V domains shown)
# VH: QVQLVQSGAEVKKPGSSVKVSCKASGGTFSSYAISWVRQAPGQGLEWMGGIIPIFGTANYAHKFQGRVTITADESTSTAYMELSSLRSEDTAVYYCATRRGYSGYGAAYYFDYWGQGTLVTVSS
# VL: QSVLTQPPSVSGAPGQRVTISCTGSSSNIGAGYDVHWYQQLPGTAPKLLIYGNSNRPSGVPDRFSGSKSGTSASLAITGLQAEDEADYYCQSYDSSLSGSLFGGGTKLTVL
# B10: ABU-322 (antibody, V domains shown)
# VH: EVQLVESGGGLIQPGGSLRLSCAASGVIVSRNYMNWVRQAPGKGLEWVSVIYSGGSTFYADSVKGRFTISRDNSKNTLYLQMNSLRAEDTAVYYCARELRGAFDIWGQGTMVTVSS
# VL: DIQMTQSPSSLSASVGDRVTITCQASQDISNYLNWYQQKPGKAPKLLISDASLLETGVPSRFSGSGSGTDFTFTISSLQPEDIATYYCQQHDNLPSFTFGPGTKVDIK
# B11: ABU-382 (antibody, V domains shown)
# VH: B10 VH with V27I, I28T, R31S, N35S, A60S, L99R, R100G, A102R, I105Y, M111L
# VL: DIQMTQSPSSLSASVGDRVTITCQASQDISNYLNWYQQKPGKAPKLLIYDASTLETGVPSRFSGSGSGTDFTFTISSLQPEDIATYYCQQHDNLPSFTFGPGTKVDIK
# B12: ABU-340 (antibody, V domains shown)
# VH: EVQLVESGGGLVQPGGSLRLSCAASGFTVSSNYMNWVRQAPGKGLEWVSVIYSGGSTYYADSVKGRFTLSRDNSKNTLYLQMNSLRAEDTAVYYCARGQYDILTGYQYGAFDIWGQGTMVTVSS
# VL: B4 VL with S31T, S92T, L98T
# B13: ABU-341 (antibody, V domains shown)
# VH: QVQLQESGPGLVKPSQTLSLTCTVSAGSISSDTYYWSWIRQPAGKGLEWIGRIYTTGSTIYNPSLNSRVLISADTSNNQFSLKLTSVTASDTAVYYCAAHYYSRTDAFHIWGQGTMVTVSS
# VL: DIQMTQSPSSLSASVGDRVTITCRASQSIAKFLNWYQKKPGKAPNLLISTASSFQSGVPSRFSGSGSGTDYTLTISGLQPEDFATYYCQQSYSSPYTFGQGTNLEIK
# B14: ABU-344 (antibody, V domains shown)
# VH: QVQLVQSGAEVKKPGSSVKVSCKASGGTFSSYTISWVRQAPGQGLEWMGRIIPILGIANYAQKFQGRVTITADKSTSTAYMELSSLRSEDTAVYYCARERGYSGSGSLYYFDYWGQGTLVTVSS
# VL: B9 VL with S26N, G52V, S54T, D87H, L101V
# B15: ABU-349 (antibody, V domains shown)
# VH: EVQLVESGGGLIQPGGSLRLSCAASGFTVSRNYMSWVRQAPGKGLEWVSLIYSGGSTFYADSVKGRFTISRDNSKNTLYLQMNTLRSEDTAVYYCARDLVVYGMDVWGQGTTVTVSS
# VL: B2 VL with A1D, S10F, S56V, D70E, Y87F, P96F, A97T, G100P, E105D
# B16: ABU-351 (antibody, V domains shown)
# VH: B15 VH with I12V, L50V, S56T, F58H, D72H, T84S, S87A
# VL: B2 VL with A1D, S10F, R61S, D70E, P96L, A97T
# B17: ABU-357 (antibody, V domains shown)
# VH: B15 VH with I12V, F27V, R31S, L50V, F58N, T84S, S87A, V101S
# VL: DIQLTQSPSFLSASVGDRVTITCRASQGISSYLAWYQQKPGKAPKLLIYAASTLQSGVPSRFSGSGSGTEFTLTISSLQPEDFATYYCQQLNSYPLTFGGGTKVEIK
# B18: ABU-352 (antibody, V domains shown)
# VH: B15 VH with F27L, R31S, S35T, L50V, D72H, T84S, S87A, L99A, V100M, V101S
# VL: DIQMTQSPSSLSASVGDRVTITCRASQSISNFLNWYQQKPGKAPKLLIYAASSLQSGVPSRFSGSGSGTGFTLTISSLQPEDFATYYCQQSYSTPPDTFGQGTRLEIK
# B19: ABU-343 (antibody, V domains shown)
# VH: QVQLVQSGAEVKKPGASVKVSCKASGYTFTNYYMHWMRQAPGQGLEWMGIINPSGGSTSYAHQFQGRVTMTRDTSTSTVYMEMSSLRSEDTAVYFCVVGIGYCSSPSCPPLRWFDYWGQGTLVTVSS
# VL: B2 VL with Y32A, L46V, A50D, T53G, S65G, L91F, S93D, P96L, A97T
# B20: ABU-346 (antibody, V domains shown)
# VH: EAQLLESGGGLVQPGGSLRLSCAVSGFTVSSYDMSWVRQAPGKRLEWVSFISARGSVTYYADSVRGRFTISRDNFKNTLYVEMNNLRVEDTAVYYCAKGHWSTWGQGTLVTVSS
# VL: DVVLTQSPLSLPVTLGQPASISCRSSHSLVYSDGYTHLHWIQERPGQSPRRLIYSVSHRDSGVPDRFSGSGSATDFTLQISRVEAEDVGVYYCMQGSHWPWTFGQGTKVEIK
# B21: ABU-348 (antibody, V domains shown)
# VH: QVQLVESGGGVVQPGKSLRLSCAASGFTFSSYGMHWVRQAPGKGLEWVAVISNYGSNKYHADSVKGRITISRDNSKNTLYLQMNSLRAEDTAVYYCAKGGYYDILTGYFPFDYWGQGTLVTVSS
# VL: QSALTQPRSVSGSPGQSVTISCTGTSSDVGGYNYVSWYQQYPGKAPKLMIYEVSKRPSGVPDRFSGSKSGNTASLTISGLQAEDEADYYCCSYAGSYTWVFGTGTKVTVL
# B22: ABU-383 (antibody, V domains shown)
# VH: EVQLVESGGGLVQPGGSLRLSCAASGFTVSSNYMSWVRQAPGKGLEWVSLIYSGGSTYYADSVKGRFTISRDNSKNTLYLQMNSLRAEDTAVYYCARDRPAAAIRFGQGTLVTVSS
# VL: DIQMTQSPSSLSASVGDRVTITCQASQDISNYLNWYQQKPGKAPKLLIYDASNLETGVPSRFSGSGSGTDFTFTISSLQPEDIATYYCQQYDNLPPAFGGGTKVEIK
# B23: ABU-384 (antibody, V domains shown)
# VH: EVQLVESGGGLVQPGGSLRLSCAASGFTVSSNYMSWVRQAPGKGLEWVSIIYSGGSTYYADSVKGRFTISRDNSKNTLYLQMNSLRAEDTAVYYCARDYAGRVWGQGTLVTVSS
# VL: DIQMTQSPSSLSASVGDRVTITCQASQDIRSYLNWYQQKPGKAPKLLIYDASNLETGVASRFSGSGSGTDFTFTISSLQPEDIATYYCQQYDNLPQTFGQGTKLEIK
# B24: ABU-385 (antibody, V domains shown)
# VH: EVQLVESGGGLVQPGGSLRLSCAASGFTVSSNYMSWVRQAPGKGLEWVSVIYSGGSTYYADSVKGRFTISRDNSKNTLYLQMNSLRAEDTAVYYCARELSYSSSSGVGPKYWGQGTLVTVSS
# VL: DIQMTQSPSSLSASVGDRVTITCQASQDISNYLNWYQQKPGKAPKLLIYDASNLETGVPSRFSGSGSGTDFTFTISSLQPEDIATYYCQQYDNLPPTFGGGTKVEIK
# B25: ABU-390 (antibody, V domains shown)
# VH: EVQLVESGGGLVQPGGSLRLSCAASGFTFSSYDMHWVRQATGKGLEWVSVIGTAGDTYYPGSVKGRFTISRENAKNSLYLQMNSLRAGDTAVYYCARDRDNGSGSYLGWAFDIWGQGTMVTVSS
# VL: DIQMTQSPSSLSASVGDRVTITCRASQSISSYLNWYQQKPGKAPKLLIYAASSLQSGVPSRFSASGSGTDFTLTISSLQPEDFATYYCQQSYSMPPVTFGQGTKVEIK
# Target: S protein of the novel coronavirus SARS-CoV-2 (SARS-CoV-2, UniProt P0DTC2 14-1273)
# Assay: cell-based or functional assay
row,Binder,"IC50 for neutralizing SARS-CoV-2 pseudovirus (Huh-7 cells, luciferase) [µg/mL]"
1,B1,< 0.1
2,B2,< 0.1
3,B3,< 0.5
4,B4,< 0.5
5,B5,< 0.1
6,B6,< 0.5
7,B7,< 0.1
8,B8,< 0.1
9,B9,< 0.5
10,B10,< 0.1
11,B11,< 0.1
12,B12,< 0.5
13,B13,< 0.1
14,B14,< 1
15,B15,< 0.1
16,B16,< 0.1
17,B17,< 1
18,B18,< 0.1

# Target: biotin-labeled SARS-COV-2 RBD domain (SARS-CoV-2, UniProt P0DTC2 319-541)
# Assay: SPR, Biacore T200, biotin-RBD on SA chip, antibody as analyte
row,Binder,Kd [nM]
1,B3,< 1
2,B4,< 10
3,B7,< 1
4,B8,< 1
5,B11,< 10
6,B12,< 10
7,B13,< 10
8,B15,< 1
9,B16,< 10
10,B17,< 10
11,B18,< 10
12,B19,< 20
13,B20,< 10
14,B21,< 10
15,B22,< 20
16,B23,< 20
17,B24,< 20
18,B25,< 10
